Experimental data from publication PMC6093495.

Assays:
[1] = target: OmpF trimer (Escherichia coli (endogenous in B^E3000)) (UniProt P02931); assay: ITC
OmpF (Escherichia coli) = OmpF (Escherichia coli) (UniProt P02931); assay: ITC; conditions: cited from earlier work

“(OBS2)3, TMEA-mediated tridentate OBS2 in the form of a colicin DNase fusion (S71C ColE9^53–83-DNase) (from UniProt P09883 53-83)” showed a Kd [1] of 480 nM, a dH [1] of -5.64 kcal·mol^–1 and a stoichiometry N [1] of 3.

In the case of “Colicin E9 OBS1 peptide OBS1 (from UniProt P09883)”, the Kd (OmpF (Escherichia coli)) is given as 2000 nM.

For Colicin E9 OBS2 peptide, the Kd (OmpF (Escherichia coli)) is listed as 24000 nM.
